Results from US20190330277A1.

Key:
Assay in all cases: ELISA, variant from culture supernatant on Ni-NTA plate
[1] = target: 391-2 hu/bov-DS-Cav1-BZGJ9 Long
[2] = target: 391-2 sc9 DS-Cav1 98C-362C
[3] = target: 391-2-DS-Cav1-BZGJ9 Long K226L
[4] = target: 391-2-DS-Cav1-BZGJ9 Long S190V
391-2-DS-Cav1-BZGJ9_gyc1 = target: 391-2-DS-Cav1-BZGJ9_gyc1
391-2-DS-Cav1-BZGJ9_gyc7 = target: 391-2-DS-Cav1-BZGJ9_gyc7
391-2-DS-Cav1-IP-4 = target: 391-2-DS-Cav1-IP-4
391-2-DS-Cav1-IP-5 = target: 391-2-DS-Cav1-IP-5
[5] = target: 391-2-DS-Cav1-sc9 100C-361C
[6] = target: 391-2-DS-Cav1-sc9deleteFS 100C-361C
[7] = target: 391-2-DS-Cav1-sc9deleteFS 98C-361C
[8] = target: 391-2-DS-Cav1-sc9deleteFS 98C-362C
[9] = target: 391-2-DS-Cav1-sc9deleteFS 99C-361C
[10] = target: 391-2-DS-Cav1_ I28C-G464C
[11] = target: 391-2-DS-Cav1_ sc9_S398C-S485C
[12] = target: 391-2-DS-Cav1_ sc9_S485C-A490C
391-2-DSCav1- F-SC_7R = target: 391-2-DSCav1- F-SC_7R
[13] = target: 391-2-site 0 hRSV DSCav1-BZGJ9 Long
391-2_DS-Cav1-tzsc3 = target: 391-2_DS-Cav1-tzsc3
391-2wt-F_SC_11R = target: 391-2wt-F_SC_11R
391-2wt_F-SC_12R core = target: 391-2wt_F-SC_12R core
RB94 DS-Cav1 Long FdPL = target: RB94 DS-Cav1 Long FdPL
[14] = target: RB94 hu/bov DS-Cav1 Long FdPL
[15] = target: RB94 sc9 DS-CAV1 A149C-Y458C L373R Long K226L
[16] = target: RB94 sc9 DS-CAV1 A149C-Y458C L373R Long S190V
[17] = target: RB94 sc9 DS-CAV1 A149C-Y458C L373R Long
[18] = target: RB94 sc9 DS-CAV1 A149C-Y458C L373R
[19] = target: RB94 sc9 DS-CAV1 N183GC-N428C L373R Long K226L
[20] = target: RB94 sc9 DS-CAV1 N183GC-N428C L373R Long
[21] = target: RB94 sc9 DS-CAV1 N183GC-N428C L373R
[22] = target: RB94 site 0 hRSV DS-Cav1 Long FdPL
[23] = target: sc9-10_DS-CAV1_bRSV(RB94)_Fd_fp2_ig1
[24] = target: sc9-10_DS-CAV1_bRSV(RB94)_Fd_hp1_fp1_ig1
[25] = target: sc9-10_DS-CAV1_bRSV(RB94)_Fd_hp1_fp2_ig1
[26] = target: sc9-10_DS-CAV1_bRSV(RB94)_Fd_hp1_ig1
[27] = target: sc9-10_DS-CAV1_bRSV(RB94)_Fd_hp2_ig1
[28] = target: sc9-10_DS-CAV1_bRSV(RB94)_Fd_pm1_fp1_ig1
[29] = target: sc9-10_DS-CAV1_bRSV(RB94)_Fd_pm1_fp2_ig1
[30] = target: sc9-10_DS-CAV1_bRSV(RB94)_Fd_pm1_ig1

Substance motavizumab (antibody) has an ELISA binding value [1] of 1.7, an ELISA binding value [2] of 0.75 and an ELISA binding value [3] of 1.94. For the same substance, the ELISA binding value [4] was 1.31, the ELISA binding value (391-2-DS-Cav1-BZGJ9_gyc1) was 2.12 and the ELISA binding value (391-2-DS-Cav1-BZGJ9_gyc7) was 0.977. The ELISA binding value (391-2-DS-Cav1-IP-4) was 0.933, the ELISA binding value (391-2-DS-Cav1-IP-5) was 1.83 and the ELISA binding value [5] was 1.63. It also gave an ELISA binding value [6] of 0.477, an ELISA binding value [7] of 0.899 and an ELISA binding value [8] of 0.589. The ELISA binding value [9] was 0.606, the ELISA binding value [10] was 1.21 and the ELISA binding value [11] was 0.487. It also gave an ELISA binding value [12] of 0.595, an ELISA binding value (391-2-DSCav1- F-SC_7R) of 0.649 and an ELISA binding value [13] of 2.08. The ELISA binding value (391-2_DS-Cav1-tzsc3) was 0.785, the ELISA binding value (391-2wt-F_SC_11R) was 1.79 and the ELISA binding value (391-2wt_F-SC_12R core) was 0.821. It also gave an ELISA binding value (RB94 DS-Cav1 Long FdPL) of 0.841, an ELISA binding value [14] of 1.44 and an ELISA binding value [15] of 0.486. It also gave an ELISA binding value [16] of 0.537, an ELISA binding value [17] of 0.512 and an ELISA binding value [18] of 0.564. It also gave an ELISA binding value [19] of 0.633, an ELISA binding value [20] of 0.488 and an ELISA binding value [21] of 1.04. It also gave an ELISA binding value [22] of 1.75, an ELISA binding value [23] of 0.748 and an ELISA binding value [24] of 2.22. For the same substance, the ELISA binding value [25] was 1.8, the ELISA binding value [26] was 2.42 and the ELISA binding value [27] was 2.52. It also gave an ELISA binding value [28] of 1.81, an ELISA binding value [29] of 1.32 and an ELISA binding value [30] of 2.22.
